This note sets out measurements from the supplement of paper PMC10567573.

B1: ZNF263 (parent)
chain: CSECGESFSRSSRLMSHQRTHTG
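Also: lentivirally expressed fusions sorted by FACS into six bins by GFP to DsRed ratio, PSI derived from sequencing read proportions per bin multiplied by bin number.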

The variants in this series derive from B1. As to the kind of experiment: protein stability index of a GFP-peptide fusion (GPS, HEK-293T) (PSI 1-6); higher = more stable. The following applies: c terminus: native.
Turning to CSECGESFSRSSRLMSHQRHHTG, the protein stability index amounted to 3.72.
Then CSECGESFSRSSRLMSHQRLHTG, with 3.21.
Then CSECGESFSRSSRLMSHQRGHTG, with 2.96.
Then CSECGESFSRSSRLMSHQRCHTG, with 2.35.
On to CSECGESFSRSSREMSHQRTHTG, for which the protein stability index came out at 2.35.
To CSECGESFSRSSRTMSHQRTHTG belongs 2.05; to CSECGESFSRSSRAMSHQRTHTG, 2.39; to CSECGESFSRSSRHMSHQRTHTG, 1.55.
To CSECGESFSRSSRPMSHQRTHTG belongs 1.67; to CSECGESFSRSSRFMSHQRTHTG, 2.43; to CSECGESFSRSSRVMSHQRTHTG, 1.45.
To CSECGESFSRSSRMMSHQRTHTG belongs 1.87; to CSECGESFSRSSRGMSHQRTHTG, 1.62; to CSECGESFSRSSRYMSHQRTHTG, 2.98.
Consider CSECGESFSRSSRDMSHQRTHTG, for which the protein stability index turned out to be 2.74.
CSECGESFSRSSRWMSHQRTHTG: the protein stability index is 1.96.
To CSECGESFSRSSRNMSHQRTHTG belongs 2.12; to CSECGESFSRSSRQMSHQRTHTG, 1.32.
Then CSECGESFSRSSRLTSHQRTHTG, with 2.54; and CSECGESFSRSSRLVSHQRTHTG, with 2.54; and CSECGESFSRSSRLISHQRTHTG, with 3.54.
Regarding CSECGESFSRSSRLGSHQRTHTG, the protein stability index was 1.98.
Turning to CSECGESFSRSSRLLSHQRTHTG, the protein stability index was determined as 3.13.
To CSECGESFSRSSRLWSHQRTHTG belongs 1.85.
To CSECGESFSRSSRLCSHQRTHTG belongs 2.75; to CSECGESFSRSSRLKSHQRTHTG, 3.97.
Then CSECGESFSRSSRLYSHQRTHTG, with 2.83.
As for CSECGESFSRSSRLQSHQRTHTG, the protein stability index was 3.51.
Then CSECGESFSRSSRLPSHQRTHTG, with 1.72; and CSECGESFSRSSRLNSHQRTHTG, with 2.22.
Then CSECGESFSRSSRLRSHQRTHTG, with 3.03; and CSECGESFSRSSRLESHQRTHTG, with 3.72.
Then CSECGESFSRSSRLDSHQRTHTG, with 3.48.
Take CSECGESFSRSSRLASHQRTHTG: the protein stability index is 3.54.
Then CSECGESFSRSSRLHSHQRTHTG, with 3.24; and CSECGESFSRSSRLFSHQRTHTG, with 3.2.
To CSECGESFSRSSRLSSHQRTHTG belongs 2.19; to CSECGESFSRSSRLMSHQRTLTG, 2.52; to CSECGESFSRSSRLMSHQRTYTG, 2.64.
To CSECGESFSRSSRLMSHQRTKTG belongs 1.78.
Turning to CSECGESFSRSSRLMSHQRTTTG, the protein stability index came to 1.6.
To CSECGESFSRSSRLMSHQRTWTG belongs 1.87; to CSECGESFSRSSRLMSHQRTFTG, 2.47; to CSECGESFSRSSRLMSHQRTGTG, 3.01.
To CSECGESFSRSSRLMSHQRTCTG belongs 2.72; to CSECGESFSRSSRLMSHQRTETG, 2.15.
To CSECGESFSRSSRLMSHQRTSTG belongs 2.74; to CSECGESFSRSSRLMSHQRTMTG, 1.45.
As for CSECGESFSRSSRLMSHQRTDTG, the protein stability index is 3.31.
For CSECGESFSRSSRLMSHQRTNTG, the protein stability index came to 2.4.
Regarding CSECGESFSRSQRLMSHQRTHTG, the protein stability index worked out at 2.38.
To CSECGESFSRSMRLMSHQRTHTG belongs 2.58; to CSECGESFSRSHRLMSHQRTHTG, 2.66; to CSECGESFSRSWRLMSHQRTHTG, 2.13.
To CSECGESFSRSCRLMSHQRTHTG belongs 3.76; to CSECGESFSRSDRLMSHQRTHTG, 4.42.
Then CSECGESFSRSVRLMSHQRTHTG, with 1.86; and CSECGESFSRSYRLMSHQRTHTG, with 2.65.
In the case of CSECGESFSRSTRLMSHQRTHTG, the protein stability index was 1.72.
Then CSECGESFSRSARLMSHQRTHTG, with 2.13; and CSECGESFSRSGRLMSHQRTHTG, with 1.91.
For the variant CSECGESFSRSLRLMSHQRTHTG, the protein stability index came to 2.01.
To CSECGESFSRSPRLMSHQRTHTG belongs 2.06; to CSECGESFSRSRRLMSHQRTHTG, 2.23.
Then CSECGESFSRSFRLMSHQRTHTG, with 1.86; and CSECGESFSRSNRLMSHQRTHTG, with 2.52; and CSECGESFSRSKRLMSHQRTHTG, with 1.99.
Then CSECGESFSRSIRLMSHQRTHTG, with 2.4; and CSECGESFSRSSRLMSHQRTHWG, with 2.25.
Consider CSECGESFSRSSRLMSHQRTHSG, for which the protein stability index was 2.23.
As for CSECGESFSRSSRLMSHQRTHIG, the protein stability index is 2.95.
Then CSECGESFSRSSRLMSHQRTHEG, with 3.76.
Then CSECGESFSRSSRLMSHQRTHMG, with 3.83.
To CSECGESFSRSSRLMSHQRTHQG belongs 2.43; to CSECGESFSRSSRLMSHQRTHFG, 3.75; to CSECGESFSRSSRLMSHQRTHAG, 2.03.
On to CSECGESFSRSSRLMSHQRTHLG, for which the protein stability index came out at 4.2.
For CSECGESFSRSSRLMSHQRTHVG, the protein stability index stood at 3.03.
Then CSECGESFSRSSRLMSHQRTHNG, with 2.29; and CSECGESFSRSSRLMSHQRTHYG, with 2.25; and CSECGESFSRSSRLMSHQRTHCG, with 2.08.
With CSECGESFSRSSRLMSHQRTHDG, the protein stability index worked out at 4.27.
Then CSECGESFSRSSRLMMHQRTHTG, with 4.14.
As to CSECGESFSRSSRLMEHQRTHTG, the protein stability index is 4.89.
To CSECGESFSRSSRLMWHQRTHTG belongs 1.83; to CSECGESFSRSSRLMDHQRTHTG, 4.8.
To CSECGESFSRSSRLMVHQRTHTG belongs 3.49; to CSECGESFSRSSRLMCHQRTHTG, 3.1; to CSECGESFSRSSRLMYHQRTHTG, 1.93.
Then CSECGESFSRSSRLMFHQRTHTG, with 2.28; and CSECGESFSRSSRLMTHQRTHTG, with 3.34.
As to CSECGESFSRSSRLMAHQRTHTG, the protein stability index was determined as 3.8.
Then CSECGESFSRSSRLMRHQRTHTG, with 3.69; and CSECGESFSRSSRLMLHQRTHTG, with 3.83; and CSECGESFSRSSRLMNHQRTHTG, with 2.14.
With CSECGESFSRSSRLMHHQRTHTG, the protein stability index amounted to 2.64.
Then CSECGESFSRSSRLMIHQRTHTG, with 2.88.
